Test results published in PMC7160673, “A Degenerate Peptide Library Approach to Reveal Sequence Determinants of Methyllysine-Driven Protein Interactions” (Frontiers in Cell and Developmental Biology, 2020).
Where no end group is shown, it is not given here. [ ]: non-standard residue; d: D form. The star is where a group is joined. 5FAM = O=C1OC2(c3ccc(O)cc3Oc3cc(O)ccc32)c2ccc(C(=O)*)cc21; Lys(Me3) = C[N+](C)(C)CCCC[C@H](N)C(=O)O

What was measured:
[1] = target: T1, M Phase Phosphoprotein 8 chromodomain (UniProt Q99549 55-116); test: fluorescence polarisation; protein serially diluted with 10 nM FAM peptide; 25 mM HEPES pH 7.5, 100 mM NaCl, 0.05% NP-40; anisotropy fitted by specific binding with Hill slope; settings: both partners purified
T1 construct: M-phase phosphoprotein 8 (MPP8), chromodomain; also called MPP8 chromo; MPP8; source: E. coli BL21, purified (glutathione resin); not shown: GST, N-terminal, kept
T1 sequence: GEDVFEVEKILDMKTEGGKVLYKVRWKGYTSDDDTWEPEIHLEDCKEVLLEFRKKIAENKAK

[2] = target: T2, Chromodomain Y-like protein 2 chromodomain; test: as above; settings: both partners purified
T2 construct: Chromodomain Y-like protein 2 (CDYL2), chromodomain; also called CDYL2 chromo; source: E. coli BL21, purified (glutathione resin); not shown: GST, N-terminal, kept
T2 sequence (Q8N8U2 whole entry, species assumed, looked up): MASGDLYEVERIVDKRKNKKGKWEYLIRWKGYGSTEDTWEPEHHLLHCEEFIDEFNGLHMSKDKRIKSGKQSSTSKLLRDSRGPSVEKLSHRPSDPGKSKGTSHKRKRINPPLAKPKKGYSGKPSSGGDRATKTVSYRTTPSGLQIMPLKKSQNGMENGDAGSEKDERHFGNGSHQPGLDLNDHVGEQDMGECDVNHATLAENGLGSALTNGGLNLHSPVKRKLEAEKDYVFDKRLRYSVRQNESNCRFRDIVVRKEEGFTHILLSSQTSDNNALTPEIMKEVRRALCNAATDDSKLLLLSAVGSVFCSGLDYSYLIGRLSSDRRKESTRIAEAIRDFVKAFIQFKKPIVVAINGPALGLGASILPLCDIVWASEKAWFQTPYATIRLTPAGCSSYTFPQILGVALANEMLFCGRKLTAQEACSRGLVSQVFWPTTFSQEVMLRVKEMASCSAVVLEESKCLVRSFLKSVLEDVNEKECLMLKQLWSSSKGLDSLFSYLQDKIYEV

Binder | Kd [1] | Kd [2]
5FAM-WSK[Lys(Me3)]RRR (also: flanking glycines, number not given here) [FAM-WSK(Kme3)RRR peptide] | 6 µM | –
5FAM-WAY[Lys(Me3)]TGK (also: flanking glycines, number not given here) [FAM-WAY(Kme3)TGK peptide] | – | 0.1 ± 0.0066 µM
